In the Human Domainome abundance scans (Beltran et al. 2025):
± gives the uncertainty stated by the source.

B1: Protein C-ets-1, residues 55 to 135; numbered along this chain, P14921 (parent)
chain: GFTKEQQRLGIPKDPRQWTETHVRDWVMWAVNEFSLKGVDFQKFCMNGAALCALGKDCFLELAPDFVGDILWEHLEILQKE

Variants of: B1
Experiment: abundance fitness (aPCA) (normalised: wild type 0, dead -1); higher = more abundant; growth selection in yeast, the domain comes from the species named
Conditions: Homo sapiens

| Variant | abundance fitness |
| --- | --- |
| GFTKEQQRLGIPKDPRQWTETHVRDWVMWAVNEISLKGVDFQKFCMNGAALCALGKDCFLELAPDFVGDILWEHLEILQKE | -0.9 ± 0.14 |
| GFTKEQQRLGRPKDPRQWTETHVRDWVMWAVNEFSLKGVDFQKFCMNGAALCALGKDCFLELAPDFVGDILWEHLEILQKE | -0.132 ± 0.038 |
| GFTKEQQRLGHPKDPRQWTETHVRDWVMWAVNEFSLKGVDFQKFCMNGAALCALGKDCFLELAPDFVGDILWEHLEILQKE | -0.364 ± 0.13 |
| GFTKEQQRLGYPKDPRQWTETHVRDWVMWAVNEFSLKGVDFQKFCMNGAALCALGKDCFLELAPDFVGDILWEHLEILQKE | -0.207 ± 0.047 |
| GFTKRQQRLGIPKDPRQWTETHVRDWVMWAVNEFSLKGVDFQKFCMNGAALCALGKDCFLELAPDFVGDILWEHLEILQKE | -0.132 ± 0.035 |
| GFTKEQQRLGIPKDPRQWTETHVRDWVMWAVNQFSLKGVDFQKFCMNGAALCALGKDCFLELAPDFVGDILWEHLEILQKE | -0.099 ± 0.051 |
| GFTKEQQRLGIPKDPRQWTETHVRDWVMWAVNEFSLKGVDFVKFCMNGAALCALGKDCFLELAPDFVGDILWEHLEILQKE | -0.358 ± 0.044 |
| GFTKEQQRLGIPKDPRQWTETHVRDWVMWAVNEFSLKGVDFWKFCMNGAALCALGKDCFLELAPDFVGDILWEHLEILQKE | -0.681 ± 0.064 |
| GFTKEQQRLGIPKDPRQWTETHVRDWVMQAVNEFSLKGVDFQKFCMNGAALCALGKDCFLELAPDFVGDILWEHLEILQKE | -0.59 ± 0.058 |
| GFTKEQQRLGIPKDPREWTETHVRDWVMWAVNEFSLKGVDFQKFCMNGAALCALGKDCFLELAPDFVGDILWEHLEILQKE | 0.046 ± 0.053 |
| GFTKEQQRLGIPKDPRQWTETHVRDWVMWAVNEFSLKGVDFQKFCMNGAALCALGKDCFLLLAPDFVGDILWEHLEILQKE | -0.248 ± 0.045 |
| GFTKEQQRLGIPKDPRQWTETHVRDWVMWAVNEFSLKGVDFQKFCMNGAALCALGKDCFLFLAPDFVGDILWEHLEILQKE | -0.772 ± 0.17 |
| GFTKEQQRLGIPIDPRQWTETHVRDWVMWAVNEFSLKGVDFQKFCMNGAALCALGKDCFLELAPDFVGDILWEHLEILQKE | -0.022 ± 0.088 |
| GFTKEQQRLGIPKDPRQWTETHVRDGVMWAVNEFSLKGVDFQKFCMNGAALCALGKDCFLELAPDFVGDILWEHLEILQKE | -0.895 ± 0.038 |
| GFTKEQTRLGIPKDPRQWTETHVRDWVMWAVNEFSLKGVDFQKFCMNGAALCALGKDCFLELAPDFVGDILWEHLEILQKE | -0.06 ± 0.047 |
| GFTKEQQRLGIPKDPRQWTETHVRDWVMWAVNEFSLKGVDFQKFCMNGAALCALGKDVFLELAPDFVGDILWEHLEILQKE | 0.018 ± 0.035 |
| GFTKEQQRLGIPKDPRQWTETHVRDWVMWAVNEFSLKGVDFQKFCMNGAALCALGKDAFLELAPDFVGDILWEHLEILQKE | 0.049 ± 0.036 |
| GFTKEQQRLGIPKDPRQWTETHVRDWVMWAVNEFSYKGVDFQKFCMNGAALCALGKDCFLELAPDFVGDILWEHLEILQKE | -0.539 ± 0.15 |
| GFTKEQQRLGIPKDPRQWTETHVRDWVMWAVNEFSLKGVDFQKFCMNGAALCALGKDCFLELAPMFVGDILWEHLEILQKE | -0.019 ± 0.075 |
| GFTKEQQRLGIPKDPRQWTETHVRDWVMWAVNEFSLKGVDFQKFCMNGAALCALGKDCFLELAPIFVGDILWEHLEILQKE | -0.008 ± 0.11 |
| GFTKEQQRLGIPKDPRQWTETHVRDWVMWAVPEFSLKGVDFQKFCMNGAALCALGKDCFLELAPDFVGDILWEHLEILQKE | -0.49 ± 0.045 |
| GFTKEQQRLGIPKDPRQWTETHVRDWVMWAVHEFSLKGVDFQKFCMNGAALCALGKDCFLELAPDFVGDILWEHLEILQKE | 0.032 ± 0.072 |
| GFTKEQQRLGIPKDPRQWTETHVRDWVMWAVNEFSLKGVDFQKFCMNGAALCALGKDCFLELAPDSVGDILWEHLEILQKE | 0.036 ± 0.036 |

| Variant | abundance fitness |
| --- | --- |
| GFTKEQQRLGIPKDPRQWTETHVRDWVMWAVNEFSLKGVDFQKFCMNGAALCALGKDCFLELAPDAVGDILWEHLEILQKE | 0.02 ± 0.045 |
| GFTKEQQRLGIPKDPRQWTETHVRKWVMWAVNEFSLKGVDFQKFCMNGAALCALGKDCFLELAPDFVGDILWEHLEILQKE | -0.005 ± 0.049 |
| GFTKEQQRLSIPKDPRQWTETHVRDWVMWAVNEFSLKGVDFQKFCMNGAALCALGKDCFLELAPDFVGDILWEHLEILQKE | -0.062 ± 0.034 |
| GFTKEQQRLAIPKDPRQWTETHVRDWVMWAVNEFSLKGVDFQKFCMNGAALCALGKDCFLELAPDFVGDILWEHLEILQKE | -0.057 ± 0.04 |
| GFTKEQQRLNIPKDPRQWTETHVRDWVMWAVNEFSLKGVDFQKFCMNGAALCALGKDCFLELAPDFVGDILWEHLEILQKE | -0.135 ± 0.081 |
| GFTKEQQRLGIPKDPRQWTETFVRDWVMWAVNEFSLKGVDFQKFCMNGAALCALGKDCFLELAPDFVGDILWEHLEILQKE | -0.965 ± 0.24 |
| GFTKEQQRLGIPKDPRQWTETGVRDWVMWAVNEFSLKGVDFQKFCMNGAALCALGKDCFLELAPDFVGDILWEHLEILQKE | -0.565 ± 0.043 |
| GFTKEQQRLGIPKDPRQWTETHVRDWVMWAVNEFSLKGVDFQKFCMNGAALCALGKDCFLELAPDFVGDILWEHLEIDQKE | -0.486 ± 0.097 |
| GFAKEQQRLGIPKDPRQWTETHVRDWVMWAVNEFSLKGVDFQKFCMNGAALCALGKDCFLELAPDFVGDILWEHLEILQKE | -0.032 ± 0.042 |
| GFLKEQQRLGIPKDPRQWTETHVRDWVMWAVNEFSLKGVDFQKFCMNGAALCALGKDCFLELAPDFVGDILWEHLEILQKE | -0.055 ± 0.041 |
| GFKKEQQRLGIPKDPRQWTETHVRDWVMWAVNEFSLKGVDFQKFCMNGAALCALGKDCFLELAPDFVGDILWEHLEILQKE | 0.025 ± 0.091 |
| GFTKEQQRHGIPKDPRQWTETHVRDWVMWAVNEFSLKGVDFQKFCMNGAALCALGKDCFLELAPDFVGDILWEHLEILQKE | -0.216 ± 0.092 |
| GFTKEQQRLGIPKDPRQWTETHVRDWVMWAVNEFSLKAVDFQKFCMNGAALCALGKDCFLELAPDFVGDILWEHLEILQKE | -0.202 ± 0.039 |
| GFTKEQQRLGIPKDPRQWTETHVRDWVMWAVNEFSLKEVDFQKFCMNGAALCALGKDCFLELAPDFVGDILWEHLEILQKE | -0.103 ± 0.052 |
| GFTKEQQRLGIPKDPRQWTETHVRDWVMWAVNEFSLKGVDFQKFCMSGAALCALGKDCFLELAPDFVGDILWEHLEILQKE | -0.003 ± 0.034 |
| GFTKEQQRLGIPKQPRQWTETHVRDWVMWAVNEFSLKGVDFQKFCMNGAALCALGKDCFLELAPDFVGDILWEHLEILQKE | -0.356 ± 0.045 |
| GFTKEQQRLGIPKDPRQWTETHVRDWVMWAVNEFSLKGVDFQCFCMNGAALCALGKDCFLELAPDFVGDILWEHLEILQKE | -0.206 ± 0.039 |
| GFTKEQQRLGIPKDPRQWTETHVRDWVMWAVNEFSLKGVDFQQFCMNGAALCALGKDCFLELAPDFVGDILWEHLEILQKE | -0.086 ± 0.052 |
| GFTKEQQRLGIPKDPRQWTETHVRDWVMWAMNEFSLKGVDFQKFCMNGAALCALGKDCFLELAPDFVGDILWEHLEILQKE | -0.069 ± 0.04 |
| GFTKEQQRLGIPKDPRQWTLTHVRDWVMWAVNEFSLKGVDFQKFCMNGAALCALGKDCFLELAPDFVGDILWEHLEILQKE | -0.209 ± 0.025 |
| GFTKEQQRLGIPKDPRQWTITHVRDWVMWAVNEFSLKGVDFQKFCMNGAALCALGKDCFLELAPDFVGDILWEHLEILQKE | -0.128 ± 0.045 |
| GFTKEQQRLGIPKDPRQWTETHVRDWVMWAVNEFVLKGVDFQKFCMNGAALCALGKDCFLELAPDFVGDILWEHLEILQKE | -0.381 ± 0.035 |
| GFTKEQQRLGIPKDPRQWTETHVRDWVMWAVNEFSLKGVDFQKFCMNGAALCALGKDCFLELAPDFVGDIEWEHLEILQKE | -0.881 ± 0.15 |

| Variant | abundance fitness |
| --- | --- |
| GFTKEQQRLGIPKDPRQWTETHVRDWVMWAVNEFSLKGVDFQKFCMNGAALCALGKDCFLELAPDFVGDILWEHLERLQKE | -0.025 ± 0.035 |
| GFTKEQQKLGIPKDPRQWTETHVRDWVMWAVNEFSLKGVDFQKFCMNGAALCALGKDCFLELAPDFVGDILWEHLEILQKE | -0.062 ± 0.061 |
| GFTKEQQFLGIPKDPRQWTETHVRDWVMWAVNEFSLKGVDFQKFCMNGAALCALGKDCFLELAPDFVGDILWEHLEILQKE | -0.091 ± 0.074 |
| GFTKEQQRLGIDKDPRQWTETHVRDWVMWAVNEFSLKGVDFQKFCMNGAALCALGKDCFLELAPDFVGDILWEHLEILQKE | -0.371 ± 0.067 |
| GFTKEQQRLGIPKDPRQWTETHVRDWVMWAVNEFSLKGVDFQKFCMNGAALCALGKDCFLELAPDFVGDILWEPLEILQKE | -0.794 ± 0.068 |
| GFTKEQQRLGIPKDPNQWTETHVRDWVMWAVNEFSLKGVDFQKFCMNGAALCALGKDCFLELAPDFVGDILWEHLEILQKE | 0.031 ± 0.082 |
| GFTKEQQRLGIPKDPRQWTETHVRDWVMWAVNEFSLKGVDFQKFCMNGAALCALGKDCFYELAPDFVGDILWEHLEILQKE | -0.058 ± 0.073 |
| GFTKEQQRLGIPKDPRQWTETHVCDWVMWAVNEFSLKGVDFQKFCMNGAALCALGKDCFLELAPDFVGDILWEHLEILQKE | -0.111 ± 0.068 |
| GFTKEQQRLGIPKDPRQWTETHVWDWVMWAVNEFSLKGVDFQKFCMNGAALCALGKDCFLELAPDFVGDILWEHLEILQKE | -0.3 ± 0.047 |
| GFTKEQQRLGIPKDPRQWTETHVRDWVMWAVNEFSLKGVDFQKFCMNGAAMCALGKDCFLELAPDFVGDILWEHLEILQKE | -0.11 ± 0.05 |
| GFTKEQQRLGIPKDPRQWTETHVRDWVMWAVNEFSLKGVDFQKFCMNCAALCALGKDCFLELAPDFVGDILWEHLEILQKE | -0.884 ± 0.13 |
| GFTKEQQRLGIPKDPRQWTETHVRDWVMWAVNEFSLKGVDFQKFCMNGAALCALGKDCFLELAPDFVGDILWHHLEILQKE | -0.315 ± 0.12 |
| GFTKEQQRLGIPKDPRQWTETHVRDWVMWAVNEFSLKGVDFQKFCMNGAALCALGKDCFLELAPDFVGDILYEHLEILQKE | 0.11 ± 0.075 |
| GFTKEQQRLGIPKDPRQWTETHVRDWVMWAVNEFSLKGVDFQKFCMNGAALCELGKDCFLELAPDFVGDILWEHLEILQKE | 0.052 ± 0.044 |
| GFTKEQQRLGIPKDPRQWTETHVRDWVMWAVNEFSLKGVDFQKFCMNGAALCALGKDCFLELAPDFVGDILWEHPEILQKE | -0.898 ± 0.14 |
| GFTKEQQRLGIPKDPRQWTETHVRDWVMWAVNEFSLKGVDFQKFCMNGAALCALGKDCFLELAPDFVGDILWEHKEILQKE | -0.466 ± 0.14 |
| GFTKEQQRLGIPKDPRQWTETHVRDWVMWAVNEFSLKGVDFQKFCMNGAALCALGKDCFLELAPDFVGDILWEHWEILQKE | -0.097 ± 0.046 |
| GFTKEQQRLGIPKDPRQWTETHTRDWVMWAVNEFSLKGVDFQKFCMNGAALCALGKDCFLELAPDFVGDILWEHLEILQKE | -0.126 ± 0.05 |
| GFTKEQQRLGIPKDPRQWTETHMRDWVMWAVNEFSLKGVDFQKFCMNGAALCALGKDCFLELAPDFVGDILWEHLEILQKE | -0.916 ± 0.13 |
| GFTKEQQRLGIPKDPRQWTETHVRDWVMWNVNEFSLKGVDFQKFCMNGAALCALGKDCFLELAPDFVGDILWEHLEILQKE | -0.108 ± 0.092 |
| GFTKEQQRLGIPKDPRQWTETHVRDWVMWAVNEFSLKGVDFQKFCMNGAMLCALGKDCFLELAPDFVGDILWEHLEILQKE | -0.007 ± 0.067 |
| GFTKEQQRLGIPKDPRQWTETHVRDWVQWAVNEFSLKGVDFQKFCMNGAALCALGKDCFLELAPDFVGDILWEHLEILQKE | 0.014 ± 0.049 |
